In US20240132622A1 (Bristol-Myers Squibb, published 2024):

Tests used:
recombinant human PAD4 [1] = target: T1, recombinant human PAD4 (human, UniProt Q9UM07 1-663); experiment: cell-based or functional assay
recombinant human PAD4 [2] = target: T1, recombinant human PAD4; experiment: SPR 37 C, captured antibody, PAD4 analyte, 1 mM CaCl2
Experimental: Their binding to human PAD4 was measured by Surface Plasmon Resonance (SPR). SPR measurements were performed with a Biacore® 8K, 8K+, or T200 instrument (Cytiva). The association rate constants, kₒₙ, dissociation rate constants, koff, and equilibrium dissociation constants, KD, of the antibodies with PAD4 were determined from these SPR measurements.
(§1) For SPR measurements, either an anti-human capture surface or Protein A surface (Cytiva catalog #29127555) was used. Anti-human capture surface was prepared by immobilizing anti-human capture antibody (Cytiva catalog #29234600) onto flow cells of a CM5 or CM4 biosensor following the manufacturer's amine coupling protocol (Cytiva catalog #BR-1006-33). SPR experiments were conducted at 37° C. using HBS-P (150 mM NaCl, 10 mM HEPES, pH 7.6, 0.05% Tween-20) (TEKNOVA catalog #H8032) with additional 150 mM NaCl and 1 mM or 2 mM CaCl₂) (see Table 2) or 2 mM EDTA (see Table 3) as running buffer. Antibodies were diluted to 1.5 μg/mL in the running buffer, and were captured across active biosensor flow cells at 10 μL/min for 15 to 30 seconds. […] The association and dissociation of the antibodies with PAD4 were measured. One 30 second injection followed by one 15 second injection of 10 mM glycine pH 1.5 was used to regenerate the Protein A capture surface between assay cycles. For anti-human capture surface, two 30 second injections of 3 M MgCl₂ was used for regeneration. SPR measurements for mAb20 and mAb 13 SPR were done in the presence of 2 mM CaCl₂). The remaining antibodies were tested in the presence of 1 mM CaCl₂).
(§2) Rate constants kₒₙ and koff were derived from reference flow cell- and 0 nM blank-subtracted sensorgrams, and were fit to a 1:1 binding model in Biacore® Insight Evaluation software version 3.0.12.15655. Deviations from 1:1 binding model were observed, which may be caused by increased dimerization of PAD4 at higher concentrations. The equilibrium dissociation constant, KD, was calculated as the ratio of rate constants koff/kₒₙ for each PAD4 antibody.

recombinant human PAD4 [3] = target: T1, recombinant human PAD4; experiment: SPR 37 C, captured antibody, PAD4 analyte, 2 mM EDTA
Experimental: as §1
as §2, with “antibody. For those antibodies that were tested in multiple SPR experiments, the average value and standard deviation from two or three separate experiments are listed in Tables 2 and 3.” for “antibody.”

[4] = target: extracellular matrix (ECM) proteins; experiment: ECM plate ELISA (Matrigel), 1 uM antibody, A450 over wells without sample

T1 sequence (Q9UM07 whole entry): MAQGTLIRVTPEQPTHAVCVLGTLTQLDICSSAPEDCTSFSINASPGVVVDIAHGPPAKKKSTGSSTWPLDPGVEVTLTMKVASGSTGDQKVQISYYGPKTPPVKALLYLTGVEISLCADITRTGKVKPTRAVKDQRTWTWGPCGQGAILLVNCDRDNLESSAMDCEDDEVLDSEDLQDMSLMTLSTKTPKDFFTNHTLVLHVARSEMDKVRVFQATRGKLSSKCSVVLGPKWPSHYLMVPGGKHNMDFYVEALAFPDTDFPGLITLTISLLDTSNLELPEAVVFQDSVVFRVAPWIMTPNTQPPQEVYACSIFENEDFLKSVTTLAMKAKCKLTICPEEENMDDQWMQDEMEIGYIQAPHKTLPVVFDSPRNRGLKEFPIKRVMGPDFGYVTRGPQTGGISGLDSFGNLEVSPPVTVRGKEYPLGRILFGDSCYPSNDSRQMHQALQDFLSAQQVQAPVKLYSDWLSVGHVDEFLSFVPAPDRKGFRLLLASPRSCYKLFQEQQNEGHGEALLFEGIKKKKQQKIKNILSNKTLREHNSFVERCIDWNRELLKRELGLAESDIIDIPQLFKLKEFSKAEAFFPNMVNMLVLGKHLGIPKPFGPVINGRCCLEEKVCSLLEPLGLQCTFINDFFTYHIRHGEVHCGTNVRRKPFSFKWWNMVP

Binder	IC50 (average), PAD4 citrullination of peptide …, RapidFire MS (recombinant human PAD4 [1])	Kd (recombinant human PAD4 [2])	koff (recombinant human PAD4 [2])	kon (recombinant human PAD4 [2])	Kd (recombinant human PAD4 [3])	koff (recombinant human PAD4 [3])	kon (recombinant human PAD4 [3])	ECM Score (1 µM) [4]
hz13-1 (antibody, V domains shown, light constant region not tied to this antibody) VH: EVQLVQSGAEVKKPGASVKVSCTSSDFNIKDHFIHWVRQAPGKGLEWMGRIDPEDDETKYAPKFQDRVTMTADTSTDTAYMELSSLRSEDTAVYYCAGYGNYEGAMDYWGQGTLVTVSS VL: DIQMTQSPSSLSASVGDRVTITCRASENVNNYGIGFMNWYQQKPGKAPKLLIYAASRRGSGVPSRFSGSGSGTDFTLTISSLQPEDFATYYCQQSKEVPYTFGQGTKVEIK	125 nM	0.2 nM	0.00015 s⁻¹	880000 M⁻¹ s⁻¹	0.3 nM	0.0004 s⁻¹	1.3e+06 M⁻¹ s⁻¹	1
hz13-4 (antibody, V domains shown, light constant region not tied to this antibody) VH: EVLLVQSGAEVKKPGASVKLSCTSSDFNIKDHFIHWVRQAPGKGLEWMGRIDPEDDETKYAPKFQDRVTMTADTSTDTAYMELSSLRSEDTAVFYCAGYGNYEGAMDYWGQGTLVTVSS VL: DIQMTQSPSSLSASVGDRVTITCRASENVNNYGIGFMNWYQQKPGKAPKLLIYAASRRGSGVPSRFSGSGSGTDFTLTISSLQPEDFATYYCQQSKEVPYTFGQGTKVEIK	115 nM	0.1 nM	0.00013 s⁻¹	930000 M⁻¹ s⁻¹	0.2 nM	0.00032 s⁻¹	1.4e+06 M⁻¹ s⁻¹	1
hz20-13 (antibody, V domains shown, light constant region not tied to this antibody) VH: QVQLVQSGAEVKKPGASVKVSCKASGYTFTNYGISWVRQRPGQGLEWMGEIYPRSGNTYHNEKFKDRVTMTTDKSTSTAYMELRSLRSEDTAVYYCARSMITTRYWYFDVWGKGTTVTVSS VL: DIVMTQSPDSLAVSLGERATINCRASESVDTYGNSFMHWYQQKPGQPPKLLIYLASNLESGVPDRFSGSGSGTDFTLTISSLQAEDVAVYYCQQNNEDPLTFGQGTKLEIK	52.6 nM	0.5 nM	0.00019 s⁻¹	390000 M⁻¹ s⁻¹	0.4 nM	0.00018 s⁻¹	440000 M⁻¹ s⁻¹	19
hz20-3 (antibody, V domains shown, light constant region not tied to this antibody) VH: EVQLVQSGAEVKKPGASVKVSCKASGYTFTNYGISWVRQAPGQGLEWMGEIYPRSGNTYHNEKFKDRVTMTADKSTSTAYMELRSLRSDDTAVYFCARSMITTRYWYFDVWGQGTLVTVSS VL: DIQMTQSPSSLSASVGDRVTITCRASESVDTYGNSFMHWYQQKPGKAPKLLIYLASNLESGVPSRFSGSGSGTDFTLTISSLQPEDFATYYCQQNNEDPLTFGQGTKVEIK	58 nM	0.5 nM	0.00023 s⁻¹	500000 M⁻¹ s⁻¹	0.9 nM	0.00031 s⁻¹	340000 M⁻¹ s⁻¹	20
hz20-6 (antibody, V domains shown, light constant region not tied to this antibody) VH: QVQLVQSGAEVKKPGASVKLSCKATGYTFTNYGISWVRQAPGQGLEWIGEIYPRSGNTYHNEKFKDRVTLTADKSSSTAYMEFRSLRSDDTAVYFCARSMITTRYWYFDVWGQGTLVTVSS VL: DIQMTQSPSSLSASVGDRVTITCRASESVDTYGNSFMHWYQQKPGKAPKLLIYLASNLESGVPSRFSGSGSGTDFTLTISSLQPEDFATYYCQQNNEDPLTFGQGTKVEIK	64 nM	0.6 nM	0.00025 s⁻¹	390000 M⁻¹ s⁻¹	1.2 nM	0.00037 s⁻¹	300000 M⁻¹ s⁻¹	16
hz20-14 (antibody, V domains shown, light constant region not tied to this antibody) VH: QVQLVQSGAEVKKPGASVKVSCKASGYTFTNYGISWVRQRPGQGLEWMGEIYPRSGNTYHNEKFKDRVTMTTDKSTSTAYMELRSLRSEDTAVYYCARSMITTRYWYFDVWGKGTTVTVSS VL: DIVMTQSPDSLAVSLGERATINCRASESVDTYGNSFMHWYQQKPGQPPKLLIYLASNLESGVPDRFSGSGSGTDFTLTIDSLQAEDVAVYYCQQNNEDPLTFGQGTKLEIK	56.9 nM	0.6 nM	0.0002 s⁻¹	340000 M⁻¹ s⁻¹	0.4 nM	0.00018 s⁻¹	450000 M⁻¹ s⁻¹	20
hz20-2 (antibody, IgG1, V domains shown, also called clone 20-based hz20-2 antibody) VH: QVQLVQSGAEVKKPGASVKVSCKASGYTFTNYGISWVRQAPGQGLEWMGEIYPRSGNTYHNEKFKDRVTMTTDTSTSTAYMELRSLRSDDTAVYYCARSMITTRYWYFDVWGQGTLVTVSS VL: DIQMTQSPSSLSASVGDRVTITCRASESVDTYGNSFMHWYQQKPGKAPKLLIYLASNLESGVPSRFSGSGSGTDFTLTISSLQPEDFATYYCQQNNEDPLTFGQGTKVEIK	73 nM	1.1 nM	0.00029 s⁻¹	290000 M⁻¹ s⁻¹	1 nM	0.00032 s⁻¹	310000 M⁻¹ s⁻¹	6

More lines, in order of falling Kd (recombinant human PAD4 [2]), values ahead:

IC50 (average), PAD4 citrullination of peptide …, RapidFire MS (recombinant human PAD4 [1])	Kd (recombinant human PAD4 [2])	koff (recombinant human PAD4 [2])	kon (recombinant human PAD4 [2])	Kd (recombinant human PAD4 [3])	koff (recombinant human PAD4 [3])	kon (recombinant human PAD4 [3])	ECM Score (1 µM) [4]	Binder
170 nM	0.1 nM	0.00015 s⁻¹	1.2e+06 M⁻¹ s⁻¹	0.1 nM	0.00025 s⁻¹	2e+06 M⁻¹ s⁻¹	1	hz13-7 (antibody, V domains shown, light constant region not tied to this antibody) VH: EVLLVQSGAEVKKPGASVKLSCTSSDFNIKDHFIHWVRQAPGKGLEWIGRIDPEDDETKYAPKFQDRVTITADTSTDTAYLELSSLRSEDTAVFYCAGYGNYEGAMDYWGQGTLVTVSS VL: DIQMTQSPSSLSASVGDRVTITCRASENVNNYGIGFMNWYQQKPGKAPKLLIYAASRRGSGVPSRFSGSGSGTDFTLTISSLQPEDFATYYCQQSKEVPYTFGQGTKVEIK
96.4 nM	0.1 nM	0.00012 s⁻¹	1.7e+06 M⁻¹ s⁻¹	0.1 nM	0.00025 s⁻¹	2e+06 M⁻¹ s⁻¹	1	hz13-2 (antibody, V domains shown, light constant region not tied to this antibody) VH: EVQLVQSGAEVKKPGASVKVSCTSSDFNIKDHFIHWVRQAPGKGLEWMGRIDPEDDETKYAPKFQDRVTMTADTSTDTAYMELSSLRSEDTAVYYCAGYGNYEGAMDYWGQGTLVTVSS VL: DIQMTQSPSSLSASVGDRVTITCRASENVNNYGIGFMNWFQQKPGKAPKLLIYAASRRGSGVPSRFSGSGSGTDFTLTISSLQPEDFATYFCQQSKEVPYTFGQGTKVEIK
39.1 nM	0.1 nM	0.00012 s⁻¹	1.6e+06 M⁻¹ s⁻¹	0.1 nM	0.00023 s⁻¹	1.7e+06 M⁻¹ s⁻¹	1	hz13-6 (antibody, V domains shown, light constant region not tied to this antibody) VH: EVLLVQSGAEVKKPGASVKLSCTSSDFNIKDHFIHWVRQAPGKGLEWMGRIDPEDDETKYAPKFQDRVTMTADTSTDTAYMELSSLRSEDTAVFYCAGYGNYEGAMDYWGQGTLVTVSS VL: DIVMTQSPSSLSASVGDRVTLTCRASENVNNYGIGFMNWFQQKPGKAPKLLIYAASRRGSGVPSRFSGSGSGTDFTLTISSMQPEDFATYFCQQSKEVPYTFGQGTKLEIK
23.3 nM	0.1 nM	0.00013 s⁻¹	1.5e+06 M⁻¹ s⁻¹	0.1 nM	0.00021 s⁻¹	1.9e+06 M⁻¹ s⁻¹	1	hz13-3 (antibody, V domains shown, light constant region not tied to this antibody) VH: EVQLVQSGAEVKKPGASVKVSCTSSDFNIKDHFIHWVRQAPGKGLEWMGRIDPEDDETKYAPKFQDRVTMTADTSTDTAYMELSSLRSEDTAVYYCAGYGNYEGAMDYWGQGTLVTVSS VL: DIVMTQSPSSLSASVGDRVTLTCRASENVNNYGIGFMNWFQQKPGKAPKLLIYAASRRGSGVPSRFSGSGSGTDFTLTISSMQPEDFATYFCQQSKEVPYTFGQGTKLEIK
